Measurements as given in patent US20240270793A1, “COMPOSITIONS” (UNIVERSITY OF SOUTHAMPTON, priority 2020, published 2024).
Square brackets hold non-standard residues; d marks the D form. Peptide text beside a SMILES is read from it. Phe(4-I) = N[C@@H](Cc1ccc(I)cc1)C(=O)O

Legend:
HIF-2α/1α:HIF-1β RTHS = assay: RTHS secondary screening, drop-spotting regrowth assay; type: cell-based; conditions: SICLOPPS-expressed peptide, control CAAAAA
Description: A screen for cyclic peptide inhibitors of HIF-2 dimerization was performed using SICLOPPS with a HIF-2 RTHS, using a method described previously.^8,9 (FIG. 1a). A secondary screen was then also conducted on the HIF-1 RTHS to compare selectivity, after which the hits found to inhibit both HIF-2 and HIF-1 were chosen for further review (FIG. 1b). SICLOPPS plasmids that produced a growth advantage in both systems were further screened in an unrelated p6/UEV RTHS to eliminate false positives (FIG. 1b).
It was expected that the similarity between these peptides would translate to a common structure-affinity relationship trend between the three, and that any differences in affinity could be used to inform optimisation efforts. In addition, all three peptides contained a basic side chain (arginine or lysine), which are protonated under physiological conditions, and would therefore aid solubility and potentially provide a useful polar interaction with the proteins themselves. […] The splicing efficiency of peptides from the Ssp intein may vary slightly depending on their sequence, thus resulting in different concentrations of peptide in the cell, which may therefore bias the extent of regrowth response.^10 It was therefore decided that to fully validate these hits, that the binding activity was to be assessed under in vitro assay conditions. […]

HIF-1α PAS-B (238-349) = target: T1, HIF-1α PAS-B (238-349) (Homo sapiens, UniProt Q16665); assay: MST binding to recombinantly expressed HIF-1α PAS-B domain
T1 construct: human HIF-1α PAS-B (238-349); His tag; made in house; host or cells: E. coli BL21(DE3)-Rosetta, pET28a
T1 sequence (Q16665 238-349): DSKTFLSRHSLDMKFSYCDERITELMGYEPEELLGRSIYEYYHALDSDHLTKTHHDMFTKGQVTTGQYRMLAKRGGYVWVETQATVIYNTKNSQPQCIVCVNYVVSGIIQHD
Description: Genes encoding for human HIF-1α PAS-B (238-349) and HIF-2α PAS-B (240-350) were each cloned into pET28a vectors at the BamHI and SacI restriction sites. The recombinant plasmids were next transformed into BL21(DE3)-Rosetta chemically competent cells. Cells were grown in LB media at 37° C. to an OD600 of 0.7, after which expression was induced by addition of 0.5 mM IPTG. Following overnight expression at 16° C., cells were pelleted and resuspended in buffer containing 50 mM Tris, 150 mM NaCl, 5% glycerol, 1 mM TCEP, protease inhibitors (Roche) and 20 mM imidazole, pH 8.0. Cells were lysed by sonication, and the supernatant applied to a 1 mL Histrap FF affinity column. The His-tagged protein of interest was eluted with buffer containing 50 mM Tris, 150 mM NaCl, 5% glycerol, 1 mM TCEP and 250 mM imidazole. The protein was then loaded onto a HiLoad 16/600 superdex 75 pg size exclusion column (GE healthcare) equilibrated with assay buffer containing 50 mM Tris, 150 mM NaCl, 5% glycerol and 1 mM TCEP, pH 8.0. Fractions containing the desired protein were flash-frozen and stored at −80° C. prior to use.
(§1) HIF-α proteins were labelled with Monolith NT-647 labelling dye (Nanotemper Technologies GmbH) according to the manufacturer's instructions. MST experiments were performed on a Monolith NT.115 system (Nanotemper Technologies GmbH), in assay buffer containing 50 nM labelled protein, 10% DMSO and 0.05% TWEEN-20. MST measurements were performed using 50% LED and 50% MST power.

[1] = test system: 1α PAS-B mutants C255A, C334A or C337A; assay: MST binding to 1α PAS-B cysteine mutants; parameters: species or system human; conditions: mutations C255A
Excerpt: The potency imparted by the thiol motif raised the possibility of the interaction being disulfide-mediated. To counter this, all assays thus far had been performed with excess reducing agent tris(2-carboxyethyl)phosphine (TCEP) present in the buffers. Nonetheless the possibility was still considered due to the importance of the thiol moiety. As the HIF-α PAS-B domain contains multiple cysteines in internal cavities there remained the potential for disulfide bond formation within a solvent and TCEP-inaccessible region of the protein-peptide complex. Three 1α PAS-B mutants were therefore prepared with mutations C255A, C334A or C337A and the activity of the peptide CRLIIF [SEQ ID NO: 6, cyclic peptide #4] again tested by MST. It was anticipated that if a disulfide bond were to form with any of these then there would be a significant loss of binding for the peptide with the corresponding mutant.
as §1

[2] = cited from earlier work
[3] = target: T2, human HIF-1α PAS-B (238-349), recombinant, His-tagged (human, UniProt Q16665 238-349, labelled with Monolith NT-647 dye for MST); assay: MST, HIF-1α PAS-B; bar chart of Kd (µM) for residues at position 6 of CRLIIF
T2 construct: range 238-349; Expressed in E. coli BL21(DE3)-Rosetta from pET28a; also called HIF-1α PAS-B domain; PAS-B domain of HIF-1α; not shown: His tag from pET28a vector (BamHI/SacI cloning)
T2 sequence (Q16665 238-349): as above

[4] = target: T2, human HIF-1α PAS-B (238-349), …; assay: MST, NT-647-labelled recombinant 1α PAS-B
Description: as §1

[5] = target: T3, human HIF-2α PAS-B (240-350), recombinant, His-tagged (human, UniProt Q99814 240-350, labelled with Monolith NT-647 dye for MST); assay: MST, peptide titrated against labelled HIF-2α PAS-B [middle panel]
T3 construct: range 240-350; Expressed in E. coli BL21(DE3)-Rosetta from pET28a; also called PAS-B domain of HIF-2α; not shown: His tag from pET28a vector (BamHI/SacI cloning)
T3 sequence (Q99814 240-350): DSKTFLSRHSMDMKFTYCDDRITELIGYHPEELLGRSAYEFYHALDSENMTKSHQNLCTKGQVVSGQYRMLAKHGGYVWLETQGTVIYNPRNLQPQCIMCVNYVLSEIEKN

[6] = target: T2, human HIF-1α PAS-B (238-349), …; assay: MST, peptide titrated against labelled HIF-1α PAS-B [middle panel]
[7] = target: T3, human HIF-2α PAS-B (240-350), …; assay: MST, peptide titrated against labelled HIF-2α PAS-B [bottom panel]
[8] = target: T2, human HIF-1α PAS-B (238-349), …; assay: MST, peptide titrated against labelled HIF-1α PAS-B [bottom panel]
[9] = target: T2, human HIF-1α PAS-B (238-349), …; assay: MST, ratio of Kd on HIF-2α PAS-B to Kd on HIF-1α PAS-B
[10] = target: T3, human HIF-2α PAS-B (240-350), …; assay: MST, NT-647-labelled recombinant PAS-B domain
Description: as §1

[11] = target: T2, human HIF-1α PAS-B (238-349), …; assay: MST, NT-647-labelled recombinant PAS-B domain
Description: as §1

[12] = target: T2, human HIF-1α PAS-B (238-349), …; assay: MST, peptide titrated against labelled HIF-1α PAS-B [top panel]
[13] = target: T3, human HIF-2α PAS-B (240-350), …; assay: MST, peptide titrated against labelled HIF-2α PAS-B [top panel]
[14] = target: T3, human HIF-2α PAS-B (240-350), …; assay: MST, NT-647-labelled recombinant HIF-2α PAS-B
Description: as §1

[15] = target: T3, human HIF-2α PAS-B (240-350), …; assay: MST, HIF-2α PAS-B against HIF-1α PAS-B
Description: as §1

[16] = target: T2, human HIF-1α PAS-B (238-349), …; assay: MST, NT-647-labelled recombinant HIF-1α PAS-B
Description: as §1

[17] = target: HIF (hypoxia inducible factor) in the YFP-reporter T-REx-293 (HEK) cell line; assay: cell-based or functional assay

CC[C@H](C)[C@@H]1NC(=O)[C@H](C(C)C)NC(=O)[C@H](CCCNC(=N)N)NC(=O)[C@H](CS)NC(=O)[C@H](Cc2ccccc2)NC(=O)[C@H]([C@@H](C)CC)NC1=O [Cyclic peptide #3, cyclo-cys arg val ile ile phe] (cyclo(CRVIIF))
regrowth response in drop-spotting assay (HIF-2α/1α:HIF-1β RTHS): greatest regrowth response
selectivity for 1α over 2α (HIF-1α PAS-B (238-349); MST affinities, 1α vs 2α PAS-B): 2 fold

CC[C@H](C)[C@@H]1NC(=O)[C@H](CC(C)C)NC(=O)[C@H](CCCNC(=N)N)NC(=O)[C@H](CS)NC(=O)[C@H](Cc2ccccc2)NC(=O)[C@H]([C@@H](C)CC)NC1=O [Cyclic peptide #4, cyclo-cys agr leu ile ile phe] (cyclo(CRLIIF))
affinity for 1α PAS-B mutants compared to wild-type protein [1]: identical to that of the wild-type protein
greater affinity than CKLLIF (HIF-1α PAS-B (238-349); MST against 1α PAS-B): about 3 fold

CLLFVY: previously reported selective inhibitor of HIF-1 dimerization, cyclic peptide Cys leu leu phe val tyr
solubility of previously reported HIF-1 inhibitor [2]: comparatively insoluble

B1: cyclo-cys arg leu ile ile tyr (peptide)
peptide: CRLIIY
modifications: head-to-tail cyclic (cyclo-)
notes: also called Cyclo-CRLIIY; cyclic peptide #29
binding result [3]: binds

CRLLIF (head-to-tail cyclic (cyclo-), also called CRLLIF; cyclic peptide #2) [cyclo-cys arg leu leu ile phe]
Kd [4]: 14 µM
Kd [5]: 10.2 µM
Kd [6]: 14.5 µM

CRVIIF (head-to-tail cyclic (cyclo-), also called CRVIIF; cyclic peptide #3) [cyclo-cys arg val ile ile phe]
Kd [7]: 123 µM
Kd [8]: 65.5 µM
fold selectivity for 1α over 2α [9]: ~2 fold
Kd [10]: 118 µM
Kd [11]: 61 µM

CKLIIF (head-to-tail cyclic (cyclo-), also called CKLIIF; cyclic peptide #1) [cyclo-cys lys leu ile ile phe]
Kd [12]: 2.6 µM
Kd [4]: 2.5 µM
Kd [13]: 2.2 µM
Kd [10]: ~2 µM
Kd [11]: ~2 µM

B2: cyclo-cys arg leu ile ile (4-I)phe (peptide)
peptide: cyclo(CRLII[Phe(4-I)])
SMILES: CC[C@H](C)[C@@H]1NC(=O)[C@H](CC(C)C)NC(=O)[C@H](CCCNC(=N)N)NC(=O)[C@H](CS)NC(=O)[C@H](Cc2ccc(I)cc2)NC(=O)[C@H]([C@@H](C)CC)NC1=O
notes: also called CRLIIF(4I); Cyclo-CRLIIF(4-I)
Kd [14]: 1.9 µM
fold loss in Kd compared to the 1α isoform [15]: 2.2 fold
Kd [16]: 0.85 µM
fold improvement in affinity relative to the parent compound CRLIIF [16]: 4.5 fold
IC50 in the YFP reporter assay (HRE-driven YFP in T-REx-293 cells, hypoxia) [17]: 35 µM
